The target in the assay is δ-toxin (secreted by S. aureus MW2 and its ΔPSMα strain) (Staphylococcus aureus MW2). Kind of assay: AUC + SEC-MALS + native MS + cross-linking. (In general: In gel filtration, larger molecules generally elute earlier.)

In the case of “δ-toxin (secreted by S. aureus MW2 and its ΔPSMα strain) (peptide)”, the stoichiometry N is 8.

One may read the stoichiometry N as the number of molecules, sites or subunits per partner or assembly.

The values are drawn from publication PMC8158037.
